{
  "source": "the Human Domainome abundance scans (Beltran et al. 2025)",
  "parents": {"B1": {"name": "Gamma-crystallin C, residues 4 to 79; numbered along this chain, P07315 (parent)", "chain": "ITFYEDRAFQGRSYETTTDCPNLQPYFSRCNSIRVESGCWMLYERPNYQGQQYLLRRGEYPDYQQWMGLSDSIRSC"}},
  "note": "± gives the uncertainty stated by the source.",
  "data": [
    {"variants_of": "B1", "assay": "abundance fitness (aPCA) (normalised: wild type 0, dead -1); higher = more abundant; growth selection in yeast, the domain comes from the species named", "settings": "Homo sapiens", "values": [
      {"variant": "ITFYEDRAFFGRSYETTTDCPNLQPYFSRCNSIRVESGCWMLYERPNYQGQQYLLRRGEYPDYQQWMGLSDSIRSC", "note": "[Q10F]", "abundance fitness": "-0.082 ± 0.14"},
      {"variant": "ITFYEDRAFNGRSYETTTDCPNLQPYFSRCNSIRVESGCWMLYERPNYQGQQYLLRRGEYPDYQQWMGLSDSIRSC", "note": "[Q10N]", "abundance fitness": "-0.094 ± 0.13"},
      {"variant": "ITFYEDRAFRGRSYETTTDCPNLQPYFSRCNSIRVESGCWMLYERPNYQGQQYLLRRGEYPDYQQWMGLSDSIRSC", "note": "[Q10R]", "abundance fitness": "-0.082 ± 0.052"},
      {"variant": "ITFYEDRAFGGRSYETTTDCPNLQPYFSRCNSIRVESGCWMLYERPNYQGQQYLLRRGEYPDYQQWMGLSDSIRSC", "note": "[Q10G]", "abundance fitness": "-0.002 ± 0.038"},
      {"variant": "ITFYEDRAFSGRSYETTTDCPNLQPYFSRCNSIRVESGCWMLYERPNYQGQQYLLRRGEYPDYQQWMGLSDSIRSC", "note": "[Q10S]", "abundance fitness": "-0.066 ± 0.066"},
      {"variant": "ITFYEDRAFKGRSYETTTDCPNLQPYFSRCNSIRVESGCWMLYERPNYQGQQYLLRRGEYPDYQQWMGLSDSIRSC", "note": "[Q10K]", "abundance fitness": "0.158 ± 0.11"},
      {"variant": "ITFYEDRAFHGRSYETTTDCPNLQPYFSRCNSIRVESGCWMLYERPNYQGQQYLLRRGEYPDYQQWMGLSDSIRSC", "note": "[Q10H]", "abundance fitness": "0.124 ± 0.24"},
      {"variant": "ITFYEDRAFLGRSYETTTDCPNLQPYFSRCNSIRVESGCWMLYERPNYQGQQYLLRRGEYPDYQQWMGLSDSIRSC", "note": "[Q10L]", "abundance fitness": "-0.123 ± 0.067"},
      {"variant": "ITFYEDRAFMGRSYETTTDCPNLQPYFSRCNSIRVESGCWMLYERPNYQGQQYLLRRGEYPDYQQWMGLSDSIRSC", "note": "[Q10M]", "abundance fitness": "-0.228 ± 0.11"},
      {"variant": "ITFYEDFAFQGRSYETTTDCPNLQPYFSRCNSIRVESGCWMLYERPNYQGQQYLLRRGEYPDYQQWMGLSDSIRSC", "note": "[R7F]", "abundance fitness": "-0.082 ± 0.17"},
      {"variant": "ITFYEDIAFQGRSYETTTDCPNLQPYFSRCNSIRVESGCWMLYERPNYQGQQYLLRRGEYPDYQQWMGLSDSIRSC", "note": "[R7I]", "abundance fitness": "-0.141 ± 0.31"},
      {"variant": "ITFYEDYAFQGRSYETTTDCPNLQPYFSRCNSIRVESGCWMLYERPNYQGQQYLLRRGEYPDYQQWMGLSDSIRSC", "note": "[R7Y]", "abundance fitness": "-0.266 ± 0.24"},
      {"variant": "ITFYEDSAFQGRSYETTTDCPNLQPYFSRCNSIRVESGCWMLYERPNYQGQQYLLRRGEYPDYQQWMGLSDSIRSC", "note": "[R7S]", "abundance fitness": "-0.117 ± 0.11"},
      {"variant": "ITFYEDKAFQGRSYETTTDCPNLQPYFSRCNSIRVESGCWMLYERPNYQGQQYLLRRGEYPDYQQWMGLSDSIRSC", "note": "[R7K]", "abundance fitness": "-0.141 ± 0.2"},
      {"variant": "ITFYEDMAFQGRSYETTTDCPNLQPYFSRCNSIRVESGCWMLYERPNYQGQQYLLRRGEYPDYQQWMGLSDSIRSC", "note": "[R7M]", "abundance fitness": "-0.444 ± 0.21"},
      {"variant": "ITFYEDAAFQGRSYETTTDCPNLQPYFSRCNSIRVESGCWMLYERPNYQGQQYLLRRGEYPDYQQWMGLSDSIRSC", "note": "[R7A]", "abundance fitness": "-0.031 ± 0.089"},
      {"variant": "ITFYEDDAFQGRSYETTTDCPNLQPYFSRCNSIRVESGCWMLYERPNYQGQQYLLRRGEYPDYQQWMGLSDSIRSC", "note": "[R7D]", "abundance fitness": "-0.153 ± 0.32"},
      {"variant": "ITFYEDWAFQGRSYETTTDCPNLQPYFSRCNSIRVESGCWMLYERPNYQGQQYLLRRGEYPDYQQWMGLSDSIRSC", "note": "[R7W]", "abundance fitness": "-0.086 ± 0.11"},
      {"variant": "ITFYEDVAFQGRSYETTTDCPNLQPYFSRCNSIRVESGCWMLYERPNYQGQQYLLRRGEYPDYQQWMGLSDSIRSC", "note": "[R7V]", "abundance fitness": "0.045 ± 0.087"},
      {"variant": "ITFYEDQAFQGRSYETTTDCPNLQPYFSRCNSIRVESGCWMLYERPNYQGQQYLLRRGEYPDYQQWMGLSDSIRSC", "note": "[R7Q]", "abundance fitness": "0.013 ± 0.073"},
      {"variant": "ITFYEDPAFQGRSYETTTDCPNLQPYFSRCNSIRVESGCWMLYERPNYQGQQYLLRRGEYPDYQQWMGLSDSIRSC", "note": "[R7P]", "abundance fitness": "0.219 ± 0.3"},
      {"variant": "ITFYEDLAFQGRSYETTTDCPNLQPYFSRCNSIRVESGCWMLYERPNYQGQQYLLRRGEYPDYQQWMGLSDSIRSC", "note": "[R7L]", "abundance fitness": "-0.029 ± 0.12"},
      {"variant": "ITFYEDGAFQGRSYETTTDCPNLQPYFSRCNSIRVESGCWMLYERPNYQGQQYLLRRGEYPDYQQWMGLSDSIRSC", "note": "[R7G]", "abundance fitness": "-0.02 ± 0.064"},
      {"variant": "ITFYEDCAFQGRSYETTTDCPNLQPYFSRCNSIRVESGCWMLYERPNYQGQQYLLRRGEYPDYQQWMGLSDSIRSC", "note": "[R7C]", "abundance fitness": "-0.002 ± 0.15"},
      {"variant": "ITFYEDTAFQGRSYETTTDCPNLQPYFSRCNSIRVESGCWMLYERPNYQGQQYLLRRGEYPDYQQWMGLSDSIRSC", "note": "[R7T]", "abundance fitness": "-0.237 ± 0.19"},
      {"variant": "ITFYEDNAFQGRSYETTTDCPNLQPYFSRCNSIRVESGCWMLYERPNYQGQQYLLRRGEYPDYQQWMGLSDSIRSC", "note": "[R7N]", "abundance fitness": "0.044 ± 0.12"},
      {"variant": "ITFYEDRAEQGRSYETTTDCPNLQPYFSRCNSIRVESGCWMLYERPNYQGQQYLLRRGEYPDYQQWMGLSDSIRSC", "note": "[F9E]", "abundance fitness": "-0.367 ± 0.21"},
      {"variant": "ITFYEDRAAQGRSYETTTDCPNLQPYFSRCNSIRVESGCWMLYERPNYQGQQYLLRRGEYPDYQQWMGLSDSIRSC", "note": "[F9A]", "abundance fitness": "-0.139 ± 0.15"},
      {"variant": "ITFYEDRAQQGRSYETTTDCPNLQPYFSRCNSIRVESGCWMLYERPNYQGQQYLLRRGEYPDYQQWMGLSDSIRSC", "note": "[F9Q]", "abundance fitness": "-0.207 ± 0.39"},
      {"variant": "ITFYEDRAVQGRSYETTTDCPNLQPYFSRCNSIRVESGCWMLYERPNYQGQQYLLRRGEYPDYQQWMGLSDSIRSC", "note": "[F9V]", "abundance fitness": "-0.628 ± 0.24"},
      {"variant": "ITFYEDRAMQGRSYETTTDCPNLQPYFSRCNSIRVESGCWMLYERPNYQGQQYLLRRGEYPDYQQWMGLSDSIRSC", "note": "[F9M]", "abundance fitness": "-0.095 ± 0.19"},
      {"variant": "ITFYEDRATQGRSYETTTDCPNLQPYFSRCNSIRVESGCWMLYERPNYQGQQYLLRRGEYPDYQQWMGLSDSIRSC", "note": "[F9T]", "abundance fitness": "-0.56 ± 0.3"},
      {"variant": "ITFYEDRACQGRSYETTTDCPNLQPYFSRCNSIRVESGCWMLYERPNYQGQQYLLRRGEYPDYQQWMGLSDSIRSC", "note": "[F9C]", "abundance fitness": "0.12 ± 0.13"},
      {"variant": "ITFYEDRAWQGRSYETTTDCPNLQPYFSRCNSIRVESGCWMLYERPNYQGQQYLLRRGEYPDYQQWMGLSDSIRSC", "note": "[F9W]", "abundance fitness": "-0.028 ± 0.067"},
      {"variant": "ITFYEDRASQGRSYETTTDCPNLQPYFSRCNSIRVESGCWMLYERPNYQGQQYLLRRGEYPDYQQWMGLSDSIRSC", "note": "[F9S]", "abundance fitness": "-0.617 ± 0.18"},
      {"variant": "ITFYEDRALQGRSYETTTDCPNLQPYFSRCNSIRVESGCWMLYERPNYQGQQYLLRRGEYPDYQQWMGLSDSIRSC", "note": "[F9L]", "abundance fitness": "0.12 ± 0.16"}
    ]}
  ]
}
